The record followed here is patent publication US20130236458A1 (AbbVie / Abbott, published 2013).

Changes are numbered by the printed parent chain. Some results are limits rather than exact numbers.

In assay [1] the target is T1, Recombinant Human IL-13 (human, UniProt P35225 35-146, limits assumed). The assay is described as follows: cell-based or functional assay.
Assay [2] has as its target T2, Recombinant Human IL-17 (human, UniProt Q16552 20-155, limits assumed).
T2 sequence (looked up): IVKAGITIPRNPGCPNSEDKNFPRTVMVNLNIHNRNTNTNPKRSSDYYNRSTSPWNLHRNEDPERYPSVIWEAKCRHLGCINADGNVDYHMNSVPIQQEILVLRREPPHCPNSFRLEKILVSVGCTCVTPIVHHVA
The assay is described as follows: cell-based or functional assay.

The target of assay [3] is T1, Recombinant Human IL-13. Kind of assay: SPR (Biacore). The protocol: (§1) The BIACORE assay (Biacore, Inc, Piscataway, N.J.) determined the affinity of antibodies or DVD-Ig with kinetic measurements of on-rate and off-rate constants. Binding of antibodies or DVD-Ig proteins to a target antigen (for example, a purified recombinant target antigen) was determined by surface plasmon resonance-based measurements with a Biacore®1000 or 3000 instrument (Biacore® AB, Uppsala, Sweden) using running HBS-EP (10 mM HEPES [pH 7.4], 150 mM NaCl, 3 mM EDTA, and 0.005% surfactant P20) at 25° C. All chemicals were obtained from Biacore® AB (Uppsala, Sweden) or otherwise from a different source as described in the text. For example, approximately 5000 RU of goat anti-mouse IgG, (Fcγ), fragment specific polyclonal antibody (Pierce Biotechnology Inc, Rockford, Ill.) diluted in 10 mM sodium acetate (pH 4.5) was directly immobilized across a CM5 research grade biosensor chip using a standard amine coupling kit according to manufacturer's instructions and procedures at 25 μg/ml. Unreacted moieties on the biosensor surface were blocked with ethanolamine. Modified carboxymethyl dextran surface in flowcell 2 and 4 was used as a reaction surface. Unmodified carboxymethyl dextran without goat anti-mouse IgG in flow cell 1 and 3 was used as the reference surface. For kinetic analysis, rate equations derived from the 1:1 Langmuir binding model were fitted simultaneously to association and dissociation phases of all eight injections (using global fit analysis) with the use of Biaevaluation 4.0.1 software. Purified antibodies or DVD-Ig proteins were diluted in HEPES-buffered saline for capture across goat anti-mouse IgG specific reaction surfaces. Antibodies or DVD-Ig proteins to be captured as a ligand (25 μg/ml) were injected over reaction matrices at a flow rate of 5 μl/minute. The association and dissociation rate constants, kₒₙ (M⁻¹s⁻¹) and koff (s⁻¹) were determined under a continuous flow rate of 25 μl/minute. Rate constants were derived by making kinetic binding measurements at different antigen concentrations ranging from 10-200 nM. The equilibrium dissociation constant (M) of the reaction between antibodies or DVD-Ig proteins and the target antigen was then calculated from the kinetic rate constants by the following formula: KD=koff/kₒₙ. Binding was recorded as a function of time and kinetic rate constants were calculated.

The target in assay [4] is T2, Recombinant Human IL-17. The assay is described as follows: SPR (Biacore). How it is done:
as §1

T1 sequence (P35225 35-146 limits assumed): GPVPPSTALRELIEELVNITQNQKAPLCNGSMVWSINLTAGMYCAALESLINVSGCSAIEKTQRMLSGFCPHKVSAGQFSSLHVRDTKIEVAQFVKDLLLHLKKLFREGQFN

B1: DVD2162 (bispecific antibody)
VH: EVTLRESGPGLVKPTQTLTLTCTLYGFSLSTSDMGVDWIRQPPGKGLEWLAHIWWDDVKRYNPALKSRLTISKDTSKNQVVLKLTSVDPVDTATYYCARTVSSGYIYYAMDYWGQGTLVTVSSASTKGPEVQLVQSGAEVKKPGESVKISCKASGGSFRSYGISWVRQAPGQGLEWMGGITHFFGITDYAQKFQGRVTITADESTTTAYMELSGLTSDDTAVYYCAREPNDFWNGYYDTHDFDSWGQGTTVTVSS
VL: DIQMTQSPSSLSASVGDRVTISCRASQDIRNYLNWYQQKPGKAPKLLIFYTSKLHSGVPSRFSGSGSGTDYTLTISSLQPEDIATYYCQQGLTPPLTFGGGTKVEIKRTVAAPSVFIFPPEIVLTQSPDFQSVTPKEKVTITCRASQNIGSELHWYQQKPDQSPKLLIKYASHSISGVPSRFSGSGSGTDFTLTINGLEAEDAATYYCHQSDTLPHTFGQGTKVDIKR
As to B1, in the assay with Recombinant Human IL-13 [1], the “N-Terminal VD IL13 Neutralization Assay IC50” value stood at 0.126 nM. Further, in the assay with Recombinant Human IL-17 [2], the “C-Terminal VD IL17 Neutralization Assay IC50” value amounted to 0.0213 nM.

B2: AB398 (antibody, V domains shown)
VH: EVQLVQSGAEVKKPGASVKVSCKASGYTFTTYGVSWVRQAPGQGLEWMGEIYPGNYNTYYNEKFRGRVTMTTDTSTSTAYMELRSLRSDDTAVYYCARWRTSYFSDYGYFDYWGQGTTVTVSS
VL: DVVMTQSPLSLPVTLGQPASISCRSSQSLVHSHGNTYLHWYQQRPGQSPRLLIYTVSNRFSGVPDRFSGSGSGTDFTLKISRVEAEDVGVYYCSQSTHVPYTFGGGTKVEIKR
notes: parent antibody; also called AB398VH
Consider B2, for which, in the assay with Recombinant Human IL-13 [3], the Kd was 0.045 nM, the dissociation rate constant (koff) was 2.8e-05 s⁻¹ and the kon is 630000 M⁻¹ s⁻¹. Besides, in the assay with Recombinant Human IL-13 [1], the “IL13 Neutralization Assay IC50 (TARC, A549 cells)” value was determined as 0.082 nM.

B3: DVD2163 (bispecific antibody)
VH: EVQLVQSGAEVKKPGESVKISCKASGGSFRSYGISWVRQAPGQGLEWMGGITHFFGITDYAQKFQGRVTITADESTTTAYMELSGLTSDDTAVYYCAREPNDFWNGYYDTHDFDSWGQGTTVTVSSASTKGPEVTLRESGPGLVKPTQTLTLTCTLYGFSLSTSDMGVDWIRQPPGKGLEWLAHIWWDDVKRYNPALKSRLTISKDTSKNQVVLKLTSVDPVDTATYYCARTVSSGYIYYAMDYWGQGTLVTVSS
VL: EIVLTQSPDFQSVTPKEKVTITCRASQNIGSELHWYQQKPDQSPKLLIKYASHSISGVPSRFSGSGSGTDFTLTINGLEAEDAATYYCHQSDTLPHTFGQGTKVDIKRTVAAPSVFIFPPDIQMTQSPSSLSASVGDRVTISCRASQDIRNYLNWYQQKPGKAPKLLIFYTSKLHSGVPSRFSGSGSGTDYTLTISSLQPEDIATYYCQQGLTPPLTFGGGTKVEIKR
Regarding B3, the “C-Terminal VD IL13 Neutralization Assay IC50” value with Recombinant Human IL-13 [1] is 0.195 nM. The “N-Terminal VD IL17 Neutralization Assay IC50” value with Recombinant Human IL-17 [2] was 0.0151 nM.

B4: AB273 (antibody, V domains shown)
VH: EVQLVQSGAEVKKPGSSVKVSCKASGYTFTDYEIHWVRQAPGQGLEWMGVNDPESGGTFYNQKFDGRVTLTADESTSTAYMELSSLRSEDTAVYYCTRYSKWDSFDGMDYWGQGTTVTVSS
VL: DIQMTQSPSSLSASVGDRVTITCRASSGIISYIDWFQQKPGKAPKRLIYATFDLASGVPSRFSGSGSGTDYTLTISSLQPEDFATYYCRQVGSYPETFGQGTKLEIKR
notes: parent antibody; also called AB273VH
Turning to B4, in the assay with Recombinant Human IL-17 [4], the Kd is under 0.5 pM, the koff was under 1e-06 s⁻¹ and the kon is 2e+06 M⁻¹ s⁻¹. Moreover, the “IL17 Neutralization Assay IC50 (IL-6, HS27 cells)” value with Recombinant Human IL-17 [2] worked out at 19.8 pM.

B5: DVD2154 (bispecific antibody)
VH: EVTLRESGPGLVKPTQTLTLTCTLYGFSLSTSDMGVDWIRQPPGKGLEWLAHIWWDDVKRYNPALKSRLTISKDTSKNQVVLKLTSVDPVDTATYYCARTVSSGYIYYAMDYWGQGTLVTVSSASTKGPEVQLVQSGAEVKKPGSSVKVSCKASGGSFGGYGIGWVRQAPGQGLEWMGGITPFFGFADYAQKFQGRVTITADESTTTAYMELSGLTSDDTAVYYCARDPNEFWNGYYSTHDFDSWGQGTTVTVSS
VL: DIQMTQSPSSLSASVGDRVTISCRASQDIRNYLNWYQQKPGKAPKLLIFYTSKLHSGVPSRFSGSGSGTDYTLTISSLQPEDIATYYCQQGLTPPLTFGGGTKVEIKRTVAAPEIVLTQSPDFQSVTPKEKVTITCRASQDIGSELHWYQQKPDQPPKLLIKYASHSTSGVPSRFSGSGSGTDFTLTINGLEAEDAGTYYCHQTDSLPYTFGPGTKVDIKR
As for B5, the “N-Terminal VD IL13 Neutralization Assay IC50” value in the assay with Recombinant Human IL-13 [1] was found to be 0.43 nM. Also, the “C-Terminal VD IL17 Neutralization Assay IC50” value with Recombinant Human IL-17 [2] worked out at 0.351 nM.

B6: DVD2160 (bispecific antibody)
VH: B1 VH
VL: B5 VL with D141N, P156S, T168I, G197A, T204S, S206T, Y209H, P213Q
With B6, in the assay with Recombinant Human IL-13 [1], the “N-Terminal VD IL13 Neutralization Assay IC50” value was found to be 0.178 nM. In addition, the “C-Terminal VD IL17 Neutralization Assay IC50” value with Recombinant Human IL-17 [2] came out at 0.703 nM.

B7: DVD2156 (bispecific antibody)
VH: B5 VH
VL: B1 VL with N148D, S163P, I175T, A204G, S211T, T213S, H216Y, Q220P
Turning to B7, the “N-Terminal VD IL13 Neutralization Assay IC50” value with Recombinant Human IL-13 [1] was found to be 0.129 nM. The “C-Terminal VD IL17 Neutralization Assay IC50” value with Recombinant Human IL-17 [2] was 0.0155 nM.

B8: AB274 (antibody, V domains shown)
VH: EVQLVQSGAEVKKPGSSVKVSCKASGGSFGGYGIGWVRQAPGQGLEWMGGITPFFGFADYAQKFQGRVTITADESTTTAYMELSGLTSDDTAVYYCARDPNEFWNGYYSTHDFDSWGQGTTVTVSS
VL: EIVLTQSPDFQSVTPKEKVTITCRASQDIGSELHWYQQKPDQPPKLLIKYASHSTSGVPSRFSGSGSGTDFTLTINGLEAEDAGTYYCHQTDSLPYTFGPGTKVDIKR
notes: parent antibody; also called AB274VH
In the case of B8, in the assay with Recombinant Human IL-17 [4], the dissociation constant Kd came to 7.4 pM, the koff amounted to 8.2e-06 s⁻¹ and the kon was determined as 1.1e+06 M⁻¹ s⁻¹. Further, the “IL17 Neutralization Assay IC50 (IL-6, HS27 cells)” value with Recombinant Human IL-17 [2] worked out at 3 pM.

B9: AB275 (antibody, V domains shown)
VH: EVQLVQSGAEVKKPGESVKISCKASGGSFRSYGISWVRQAPGQGLEWMGGITHFFGITDYAQKFQGRVTITADESTTTAYMELSGLTSDDTAVYYCAREPNDFWNGYYDTHDFDSWGQGTTVTVSS
VL: B8 VL with D28N, P43S, T55I, G84A, T91S, S93T, Y96H, P100Q
notes: parent antibody; also called AB275VH
As to B9, in the assay with Recombinant Human IL-17 [4], the Kd is 34 pM, the koff came out at 6.5e-05 s⁻¹ and the on-rate (kon) came to 1.9e+06 M⁻¹ s⁻¹. Further, the “IL17 Neutralization Assay IC50 (IL-6, HS27 cells)” value in the assay with Recombinant Human IL-17 [2] amounted to 5.2 pM.

B10: AB399 (antibody, V domains shown)
VH: EVQLVQSGAEVKKPGASVKVSCKASGYTFTSYWMHWVRQAPGQGLEWIGNINPKGGSNIYNEKFQGRVTMTRDTSISTAYMELSRLRSDDTAVYYCARLDYFGDSFDLWGQGTTVTVSS
VL: DIQMTQSPSSLSASVGDRVTITCRASQGIRNYLNWYQQKPGKAPKLLIYYASNLEVGVPSRFSGSGSGTDYTLTISSLQPEDFATYYCQQDNRFPYTFGGGTKVEIKR
notes: parent antibody; also called AB399VH
Regarding B10, in the assay with Recombinant Human IL-13 [3], the Kd came out at 0.019 nM, the koff was found to be 6.4e-05 s⁻¹ and the kon came out at 3.4e+06 M⁻¹ s⁻¹. In addition, the “IL13 Neutralization Assay IC50 (TARC, A549 cells)” value in the assay with Recombinant Human IL-13 [1] is 0.043 nM.

B11: AB397 (antibody, V domains shown)
VH: EVTLRESGPGLVKPTQTLTLTCTLYGFSLSTSDMGVDWIRQPPGKGLEWLAHIWWDDVKRYNPALKSRLTISKDTSKNQVVLKLTSVDPVDTATYYCARTVSSGYIYYAMDYWGQGTLVTVSS
VL: DIQMTQSPSSLSASVGDRVTISCRASQDIRNYLNWYQQKPGKAPKLLIFYTSKLHSGVPSRFSGSGSGTDYTLTISSLQPEDIATYYCQQGLTPPLTFGGGTKVEIKR
notes: parent antibody; also called AB397VH
In the case of B11, in the assay with Recombinant Human IL-13 [3], the equilibrium dissociation constant (Kd) worked out at 0.13 nM, the koff was found to be 0.00012 s⁻¹ and the on-rate constant (kon) was found to be 920000 M⁻¹ s⁻¹. In addition, in the assay with Recombinant Human IL-13 [1], the “IL13 Neutralization Assay IC50 (TARC, A549 cells)” value came to 0.033 nM.

Broadly, the Kd is the equilibrium constant for the complex coming apart. In general, koff refers to a measure of how fast the partners let go of each other. The term kon denotes a measure of how fast the partners come together.
